Measured values: patent US20130079278A1 (Novo Nordisk, published 2013)
*1 amine or outer side, *2 acyl side, *3 side chain or, on linkers, in order; H or OH if unused. Where no end group is shown, it is not given here. Side-chain parts run from the residue outwards. The star is where a group is joined. C18 diacid = O=C(O)CCCCCCCCCCCCCCCCC(=O)*; γGlu = O=C(O)[C@H](CCC(=O)[*:2])N[*:1]; C14 diacid = O=C(O)CCCCCCCCCCCCC(=O)*; AEEA = NCCOCCOCC(=O)O

B1: N^ε24-[(4S)-4-carboxy-4-[[(4S)-4-carboxy-4-[[2-[2-[2-[[2-[2-[2-[[(4S)-4-carboxy-4-(17-carboxyheptadecanoylamino)butanoyl]amino]ethoxy]ethoxy]acetyl]amino]ethoxy … (peptide)
peptide: HSQGTFTSDYSRYLDLRRAQDFVK([γGlu-γGlu-AEEA-AEEA-γGlu-C18 diacid])WLLST
B2: N^ε24-[(4S)-4-carboxy-4-[[(4S)-4-carboxy-4-[[2-[2-[2-[[2-[2-[2-[[(4S)-4-carboxy-4-(17-carboxyheptadecanoylamino)butanoyl]amino]ethoxy]ethoxy]acetyl]amino]ethoxy … (peptide)
peptide: HSQGTFTSDYSRYLDLRRAQDFVK([γGlu-γGlu-AEEA-AEEA-γGlu-C18 diacid])WLLIT
B3: N^ε24-[(4S)-4-carboxy-4-[[(4S)-4-carboxy-4-[[2-[2-[2-[[2-[2-[2-[[(4S)-4-carboxy-4-(17-carboxyheptadecanoylamino)butanoyl]amino]ethoxy]ethoxy]acetyl]amino]ethoxy … (peptide)
peptide: HSQGTFTSDYSRYLDTRRAQDFVK([γGlu-γGlu-AEEA-AEEA-γGlu-C18 diacid])WLLST
B4: N^ε24-[(4S)-4-carboxy-4-[[(4S)-4-carboxy-[[2-[2-[2-[[(4S)-4-carboxy-4-(17-carboxyheptadecanoylamino)butanoyl]amino]ethoxy]ethoxy]acetyl]amino]butanoyl]amino]but … (peptide)
peptide: HSQGTFTSDYSKYLESRRAQDFVK([γGlu-γGlu-AEEA-γGlu-C18 diacid])WLLST
B5: N^ε24-[(4S)-4-carboxy-4-[[(4S)-4-carboxy-4-[[2-[2-[2-[[2-[2-[2-[[(4S)-4-carboxy-4-(17-carboxyheptadecanoylamino)butanoyl]amino]ethoxy]ethoxy]acetyl]amino]ethoxy … (peptide)
peptide: HSQGTFTSDYSRYLESRRAQDFVK([γGlu-γGlu-AEEA-AEEA-γGlu-C18 diacid])WLLST
modifications: not fully specified; printed as Nε24-[(4S)-4-carboxy-4-[[(4S)-4-carboxy-4-[[2-[2-[2-[[2-[2-[2-[[(4S)-4-carboxy-4-(17-carboxyheptadecanoylamino)butanoyl]amino]ethoxy]ethoxy]acetyl]amino]ethoxy]ethoxy]acetyl]amino]butanoyl]amino]butanoyl]-[Arg12,Glu15,Lys24,Leu27,Ser25]-Glucagon
B6: N^ε24-[(4S)-4-carboxy-4-[[(4S)-4-carboxy-4-[[2-[2-[2-[[2-[2-[2-[[(4S)-4-carboxy-4-(17-carboxyheptadecanoylamino)butanoyl]amino]ethoxy]ethoxy]acetyl]amino]ethoxy … (peptide)
peptide: HSQGTFTSDYSRYLDLRRAQDFVK([γGlu-γGlu-AEEA-AEEA-γGlu-C18 diacid])WLLTT
B7: N^ε24-[(4S)-4-carboxy-4-[[(4S)-4-carboxy-4-[[2-[2-[2-[[2-[2-[2-[[(4S)-4-carboxy-4-(17-carboxyheptadecanoylamino)butanoyl]amino]ethoxy]ethoxy]acetyl]amino]ethoxy … (peptide)
peptide: HSQGTFTSDYSKYLDIRRAQDFVK([γGlu-γGlu-AEEA-AEEA-γGlu-C18 diacid])WLLST
B8: N^ε24-[(4S)-4-carboxy-4-[[(4S)-4-carboxy-4-[[2-[2-[2-[[2-[2-[2-[[(4S)-4-carboxy-4-(17-carboxyheptadecanoylamino)butanoyl]amino]ethoxy]ethoxy]acetyl]amino]ethoxy … (peptide)
peptide: HSQGTFTSDYSRYLDIRRAQDFVK([γGlu-γGlu-AEEA-AEEA-γGlu-C18 diacid])WLLST
B9: N^ε24-[(4S)-4-carboxy-4-[[(4S)-4-carboxy-4-[[2-[2-[2-[[2-[2-[2-[[(4S)-4-carboxy-4-(17-carboxyheptadecanoylamino)butanoyl]amino]ethoxy]ethoxy]acetyl]amino]ethoxy … (peptide)
peptide: HSQGTFTSDYSRYLDRRRAQDFVK([γGlu-γGlu-AEEA-AEEA-γGlu-C18 diacid])WLLST
B10: N^ε24-[(4S)-4-carboxy-4-[[(4S)-4-carboxy-4-[[2-[2-[2-[[2-[2-[2-[[(4S)-4-carboxy-4-(17-carboxyheptadecanoylamino)butanoyl]amino]ethoxy]ethoxy]acetyl]amino]ethoxy … (peptide)
peptide: HSQGTFTSDYSRYLDTRRAQDFVK([γGlu-γGlu-AEEA-AEEA-γGlu-C18 diacid])WLLNT
B11: N^ε24-[(4S)-4-carboxy-4-[[(4S)-4-carboxy-4-[[2-[2-[2-[[2-[2-[2-[[(4S)-4-carboxy-4-(17-carboxyheptadecanoylamino)butanoyl]amino]ethoxy]ethoxy]acetyl]amino]ethoxy … (peptide)
peptide: HSQGTFTSDYSRYLDFRRAQDFVK([γGlu-γGlu-AEEA-AEEA-γGlu-C18 diacid])WLLST
B12: N^ε24-[(4S)-4-carboxy-4-[[(4S)-4-carboxy-4-[[2-[2-[2-[[2-[2-[2-[[(4S)-4-carboxy-4-(13-carboxytridecanoylamino)butanoyl]amino]ethoxy]ethoxy]acetyl]amino]ethoxy]e … (peptide)
peptide: HSQGTFTSDYSRYLDLRRAQDFVK([γGlu-γGlu-AEEA-AEEA-γGlu-C14 diacid])WLLST
B13: N^ε24-[(4S)-4-carboxy-4-[[(4S)-4-carboxy-4-[[2-[2-[2-[[2-[2-[2-[[(4S)-4-carboxy-4-(17-carboxyheptadecanoylamino)butanoyl]amino]ethoxy]ethoxy]acetyl]amino]ethoxy … (peptide)
peptide: HSHGTFTSDYSKYLDSRRAQDFVK([γGlu-γGlu-AEEA-AEEA-γGlu-C18 diacid])WLLST
B14: N^ε24-[(4S)-4-carboxy-4-[[(4S)-4-carboxy-4-[[2-[2-[2-[[2-[2-[2-[[(4S)-4-carboxy-4-(17-carboxyheptadecanoylamino)butanoyl]amino]ethoxy]ethoxy]acetyl]amino]ethoxy … (peptide)
peptide: HSQGTFTSDYSRYLDVRRAQDFVK([γGlu-γGlu-AEEA-AEEA-γGlu-C18 diacid])WLLST
B15: N^ε24-[(4S)-4-carboxy-4-[[(4S)-4-carboxy-4-[[2-[2-[2-[[2-[2-[2-[[(4S)-4-carboxy-4-(17-carboxyheptadecanoylamino)butanoyl]amino]ethoxy]ethoxy]acetyl]amino]ethoxy … (peptide)
peptide: HSQGTFTSDYSKYLDTRRAQDFVK([γGlu-γGlu-AEEA-AEEA-γGlu-C18 diacid])WLLST
B16: N^ε24-[(4S)-4-carboxy-4-[[(4S)-4-carboxy-4-[[2-[2-[2-[[2-[2-[2-[[(4S)-4-carboxy-4-(17-carboxyheptadecanoylamino)butanoyl]amino]ethoxy]ethoxy]acetyl]amino]ethoxy … (peptide)
peptide: HSQGTFTSDYSRYLDARRAQDFVK([γGlu-γGlu-AEEA-AEEA-γGlu-C18 diacid])WLLST

Target: glucagon receptor (human, UniProt P47871 26-477)
Sequence (P47871 26-477): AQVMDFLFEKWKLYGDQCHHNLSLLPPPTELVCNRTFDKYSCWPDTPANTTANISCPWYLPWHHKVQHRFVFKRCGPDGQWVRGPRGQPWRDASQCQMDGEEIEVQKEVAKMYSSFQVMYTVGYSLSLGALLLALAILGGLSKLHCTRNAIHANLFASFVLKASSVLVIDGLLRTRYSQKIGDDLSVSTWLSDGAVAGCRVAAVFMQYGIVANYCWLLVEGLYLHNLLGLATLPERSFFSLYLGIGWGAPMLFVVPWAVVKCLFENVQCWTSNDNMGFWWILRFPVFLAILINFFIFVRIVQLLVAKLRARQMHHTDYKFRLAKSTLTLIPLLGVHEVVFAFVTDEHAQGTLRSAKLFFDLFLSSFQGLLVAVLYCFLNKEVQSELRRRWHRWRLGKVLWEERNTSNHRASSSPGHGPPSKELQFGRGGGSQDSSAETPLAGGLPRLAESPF
Assay: cell-based or functional assay

Going from B1 to B2, the “Assay (I) Glucagon [EC50]” value rises from 0.255 nM to 1.67 nM (6.5-fold).

B3 and B4 are within 1.5-fold of each other in “Assay (I) Glucagon [EC50]” value: 0.297 nM for the first, 0.28 nM for the second.

B5 and B6 are within 1.5-fold of each other in “Assay (I) Glucagon [EC50]” value: 0.748 nM for the first, 0.754 nM for the second.

Going from B7 to B8, the “Assay (I) Glucagon [EC50]” value rises from 0.084 nM to 1.04 nM (12-fold).

First: B9
Second: B10
The “Assay (I) Glucagon [EC50]” value of the first is 11-fold higher: 0.355 nM for the first, 0.031 nM for the second.

Compared with B11, B12 is 270-fold lower in “Assay (I) Glucagon [EC50]” value: 1.64 nM for the first, 0.006 nM for the second.

Compared with B13, B14 is 10-fold higher in “Assay (I) Glucagon [EC50]” value: 0.129 nM for the first, 1.32 nM for the second.

First: B15
Second: B16
The “Assay (I) Glucagon [EC50]” value of the first is 2.1-fold lower: 0.075 nM for the first, 0.158 nM for the second.
